Source: PMC4264193, “Structures of the Inducer-Binding Domain of Pentachlorophenol-Degrading Gene Regulator PcpR from Sphingobium chlorophenolicum” (International Journal of Molecular Sciences, 2014)

Molecular target: the molecule itself
Assay: SEC-MALS; 200 ug of PcpR loaded on a BioSep-SEC-S 2000 column, eluted isocratically at 0.5 mL/min; UV, refractometer and Dawn EOS light scattering detectors; Zimm fit; calculated mass ~50 kD

B1: PcpR inducer-binding domain (residues from 85 to the C-terminus of PcpR) (domain or fragment, Sphingobium chlorophenolicum L-1, UniProt P52679 85-307, looked up)
chain: RSELRFDPGTSNRNFRIAASDFGQALMLPRLYATLEETAPQVRVTGVNLRHGPLVEELESGSIDIAFGGFPTLSAGIKTQTLFREEYVCVMRQSHPALTHGLDLEAFRQCRHIIVTAHEFNHVHEQVEARLLELLPPESIRFTTENFLVSAVIAEETDVILTIPSRLARWFANRGGLTIFPVPIELPSIEVKQYWHERYDKDPGNIWLRRVIAKIGFQNPPAE
notes: PcpR, LysR-type transcription factor of Sphingobium chlorophenolicum L-1; Cloned into pET30-LIC and expressed as a C-terminal HIS6X fusion protein; also called PcpR IBD; source: E. coli BL21(DE3), purified (nickel-nitrilotriacetate column, Mono Q anion exchange)
stoichiometry N: 2
